{"source": "the supplement of paper PMC9732359", "test": "protein stability index of a GFP-peptide fusion (yeast GPS) (PSI 1-4); higher = more stable; sorted into four equal gates, so the index is relative within each strain", "how_it_was_run": "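Plasmids in a pooled yeast library fused tiled 17-residue yeast protein peptides downstream of GFP and also expressed Cherry. Mid-log cultures grown without leucine were sorted into four equal gates by GFP/Cherry fluorescence ratio. Each gate's plasmids were PCR-amplified and Illumina-sequenced, and reads were matched to strains by barcodes. The protein stability index is derived by multiplying each gate's read frequency by its gate number and summing the results.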", "note": "± gives the uncertainty stated by the source.", "data": [{"sequence": "GYFGKVGMRYFHKQQAH [RPL28]", "values": [{"measurement": "protein stability index", "setting": "doa10∆", "value": "2.6 ± 0.14"}, {"measurement": "protein stability index", "setting": "pdr5∆", "value": "2.76 ± 0.095"}, {"measurement": "protein stability index", "setting": "san1∆", "value": "2.89 ± 0.12"}, {"measurement": "protein stability index", "setting": "ubr1∆", "value": "2.84 ± 0.05"}]}, {"sequence": "EILGTAQSVGCRVDFKN [RPL12A]", "values": [{"measurement": "protein stability index", "setting": "doa10∆", "value": "2.12 ± 0.06"}, {"measurement": "protein stability index", "setting": "pdr5∆", "value": "2.25 ± 0.06"}, {"measurement": "protein stability index", "setting": "san1∆", "value": "2.46 ± 0.11"}, {"measurement": "protein stability index", "setting": "ubr1∆", "value": "2.94 ± 0.055"}]}, {"sequence": "RIFISNVSENQPWQMDT [SNF12]", "values": [{"measurement": "protein stability index", "setting": "doa10∆", "value": "2.98 ± 0.052"}, {"measurement": "protein stability index", "setting": "pdr5∆", "value": "3.17 ± 0.072"}, {"measurement": "protein stability index", "setting": "san1∆", "value": "3.09 ± 0.04"}, {"measurement": "protein stability index", "setting": "ubr1∆", "value": "3.11 ± 0.054"}]}, {"sequence": "EDHMLKKIENTMLENIT [RPO21]", "values": [{"measurement": "protein stability index", "setting": "doa10∆", "value": "2.73 ± 0.1"}, {"measurement": "protein stability index", "setting": "pdr5∆", "value": "2.78 ± 0.086"}, {"measurement": "protein stability index", "setting": "san1∆", "value": "2.92 ± 0.077"}, {"measurement": "protein stability index", "setting": "ubr1∆", "value": "2.85 ± 0.083"}]}, {"sequence": "TDIKDTLTKISMLFKTS [MCD1]", "values": [{"measurement": "protein stability index", "setting": "doa10∆", "value": "2.87 ± 0.15"}, {"measurement": "protein stability index", "setting": "pdr5∆", "value": "2.88 ± 0.27"}, {"measurement": "protein stability index", "setting": "san1∆", "value": "2.37 ± 0.18"}]}, {"sequence": "RMTIRTRGRSATIRETY [RRP43]", "values": [{"measurement": "protein stability index", "setting": "doa10∆", "value": "2.96 ± 0.057"}, {"measurement": "protein stability index", "setting": "pdr5∆", "value": "2.64 ± 0.061"}, {"measurement": "protein stability index", "setting": "san1∆", "value": "2.67 ± 0.062"}, {"measurement": "protein stability index", "setting": "ubr1∆", "value": "2.2 ± 0.049"}]}, {"sequence": "CKQVHDKLTSIQDTLRT [MED7]", "values": [{"measurement": "protein stability index", "setting": "doa10∆", "value": "2.68 ± 0.074"}, {"measurement": "protein stability index", "setting": "pdr5∆", "value": "2.85 ± 0.048"}, {"measurement": "protein stability index", "setting": "san1∆", "value": "2.67 ± 0.044"}, {"measurement": "protein stability index", "setting": "ubr1∆", "value": "2.81 ± 0.053"}]}, {"sequence": "AFSPLTTTRIQSQQAQP [MED2]", "values": [{"measurement": "protein stability index", "setting": "doa10∆", "value": "2.7 ± 0.055"}, {"measurement": "protein stability index", "setting": "pdr5∆", "value": "2.83 ± 0.044"}, {"measurement": "protein stability index", "setting": "san1∆", "value": "2.52 ± 0.061"}, {"measurement": "protein stability index", "setting": "ubr1∆", "value": "2.8 ± 0.036"}]}, {"sequence": "EDIMVHYDNTTRNSLGN [RPO21]", "values": [{"measurement": "protein stability index", "setting": "doa10∆", "value": "3.1 ± 0.09"}, {"measurement": "protein stability index", "setting": "pdr5∆", "value": "3.1 ± 0.095"}, {"measurement": "protein stability index", "setting": "san1∆", "value": "3.35 ± 0.041"}, {"measurement": "protein stability index", "setting": "ubr1∆", "value": "3.06 ± 0.075"}]}, {"sequence": "PRYHSKNSFQQALQMKA [SWP82]", "values": [{"measurement": "protein stability index", "setting": "doa10∆", "value": "1.4 ± 0.033"}, {"measurement": "protein stability index", "setting": "pdr5∆", "value": "1.82 ± 0.049"}, {"measurement": "protein stability index", "setting": "san1∆", "value": "1.38 ± 0.062"}, {"measurement": "protein stability index", "setting": "ubr1∆", "value": "1.45 ± 0.043"}]}, {"sequence": "SYESLKKRKIHNGREGS [MCD1]", "values": [{"measurement": "protein stability index", "setting": "doa10∆", "value": "1.7 ± 0.04"}, {"measurement": "protein stability index", "setting": "pdr5∆", "value": "1.91 ± 0.041"}, {"measurement": "protein stability index", "setting": "san1∆", "value": "1.69 ± 0.062"}, {"measurement": "protein stability index", "setting": "ubr1∆", "value": "2 ± 0.032"}]}, {"sequence": "HNAKNGTLDKNSQTVSG [SNF2]", "values": [{"measurement": "protein stability index", "setting": "doa10∆", "value": "1.98 ± 0.13"}, {"measurement": "protein stability index", "setting": "pdr5∆", "value": "2.42 ± 0.2"}, {"measurement": "protein stability index", "setting": "san1∆", "value": "2.37 ± 0.2"}, {"measurement": "protein stability index", "setting": "ubr1∆", "value": "2.96 ± 0.16"}]}, {"sequence": "FDPSKDVLINELLDQVT [CDC53]", "values": [{"measurement": "protein stability index", "setting": "doa10∆", "value": "2.74 ± 0.066"}, {"measurement": "protein stability index", "setting": "pdr5∆", "value": "2.15 ± 0.047"}, {"measurement": "protein stability index", "setting": "san1∆", "value": "2.24 ± 0.087"}, {"measurement": "protein stability index", "setting": "ubr1∆", "value": "2.5 ± 0.054"}]}, {"sequence": "KLYVDAVHSIIALSRRF [YDL116W/NUP84]", "values": [{"measurement": "protein stability index", "setting": "doa10∆", "value": "2.01 ± 0.077"}, {"measurement": "protein stability index", "setting": "pdr5∆", "value": "1.81 ± 0.065"}, {"measurement": "protein stability index", "setting": "san1∆", "value": "1.82 ± 0.12"}, {"measurement": "protein stability index", "setting": "ubr1∆", "value": "1.93 ± 0.064"}]}, {"sequence": "VTRKQEDARRNPNPSSQ [RPC37]", "values": [{"measurement": "protein stability index", "setting": "doa10∆", "value": "3.33 ± 0.087"}, {"measurement": "protein stability index", "setting": "pdr5∆", "value": "3.44 ± 0.094"}, {"measurement": "protein stability index", "setting": "san1∆", "value": "3.19 ± 0.081"}, {"measurement": "protein stability index", "setting": "ubr1∆", "value": "3.54 ± 0.061"}]}, {"sequence": "ANVQRLKEYQSKIIVFP [RPL13A]", "values": [{"measurement": "protein stability index", "setting": "doa10∆", "value": "2.93 ± 0.076"}, {"measurement": "protein stability index", "setting": "pdr5∆", "value": "3.03 ± 0.093"}, {"measurement": "protein stability index", "setting": "san1∆", "value": "3.05 ± 0.092"}, {"measurement": "protein stability index", "setting": "ubr1∆", "value": "3 ± 0.067"}]}, {"sequence": "YLHIRDKILQLNDRFQT [PGD1]", "values": [{"measurement": "protein stability index", "setting": "doa10∆", "value": "2.62 ± 0.056"}, {"measurement": "protein stability index", "setting": "pdr5∆", "value": "2.02 ± 0.064"}, {"measurement": "protein stability index", "setting": "san1∆", "value": "2.38 ± 0.053"}, {"measurement": "protein stability index", "setting": "ubr1∆", "value": "2.27 ± 0.038"}]}, {"sequence": "NNGLPECQVIAAEGLCK [YCG1]", "values": [{"measurement": "protein stability index", "setting": "doa10∆", "value": "2.53 ± 0.12"}, {"measurement": "protein stability index", "setting": "pdr5∆", "value": "3.47 ± 0.16"}, {"measurement": "protein stability index", "setting": "san1∆", "value": "1.65 ± 0.15"}, {"measurement": "protein stability index", "setting": "ubr1∆", "value": "2.72 ± 0.048"}]}, {"sequence": "TEDIREGDQAEVIFSFE [YMR129W/POM152]", "values": [{"measurement": "protein stability index", "setting": "doa10∆", "value": "3.47 ± 0.087"}, {"measurement": "protein stability index", "setting": "pdr5∆", "value": "3.39 ± 0.072"}, {"measurement": "protein stability index", "setting": "san1∆", "value": "3.19 ± 0.066"}, {"measurement": "protein stability index", "setting": "ubr1∆", "value": "3.44 ± 0.071"}]}, {"sequence": "GFTASVSNQENAGTDIV [MED1]", "values": [{"measurement": "protein stability index", "setting": "doa10∆", "value": "2.95 ± 0.14"}, {"measurement": "protein stability index", "setting": "pdr5∆", "value": "2.91 ± 0.13"}, {"measurement": "protein stability index", "setting": "san1∆", "value": "2.64 ± 0.16"}, {"measurement": "protein stability index", "setting": "ubr1∆", "value": "3.07 ± 0.072"}]}, {"sequence": "EFIRCGCLIKNLPRTKA [RMP1]", "values": [{"measurement": "protein stability index", "setting": "doa10∆", "value": "2.17 ± 0.087"}, {"measurement": "protein stability index", "setting": "pdr5∆", "value": "2.82 ± 0.1"}, {"measurement": "protein stability index", "setting": "san1∆", "value": "2.3 ± 0.11"}, {"measurement": "protein stability index", "setting": "ubr1∆", "value": "2.53 ± 0.077"}]}, {"sequence": "NSPNYFVAKLAAQIFGS [COR1]", "values": [{"measurement": "protein stability index", "setting": "doa10∆", "value": "1.84 ± 0.044"}, {"measurement": "protein stability index", "setting": "pdr5∆", "value": "2.02 ± 0.061"}, {"measurement": "protein stability index", "setting": "san1∆", "value": "1.68 ± 0.08"}, {"measurement": "protein stability index", "setting": "ubr1∆", "value": "2.12 ± 0.049"}]}, {"sequence": "VAAERAARKAANKEKRA [RPL7A]", "values": [{"measurement": "protein stability index", "setting": "doa10∆", "value": "2.36 ± 0.21"}, {"measurement": "protein stability index", "setting": "pdr5∆", "value": "1.54 ± 0.12"}, {"measurement": "protein stability index", "setting": "ubr1∆", "value": "1.71 ± 0.082"}]}, {"sequence": "LEDGDVVLFNRQPSLHR [RPO31]", "values": [{"measurement": "protein stability index", "setting": "doa10∆", "value": "2.42 ± 0.072"}, {"measurement": "protein stability index", "setting": "pdr5∆", "value": "2.67 ± 0.062"}, {"measurement": "protein stability index", "setting": "san1∆", "value": "2.47 ± 0.072"}, {"measurement": "protein stability index", "setting": "ubr1∆", "value": "2.08 ± 0.051"}]}, {"sequence": "TPQSKGFVRNSFFSGLS [RPO31]", "values": [{"measurement": "protein stability index", "setting": "doa10∆", "value": "3.01 ± 0.089"}, {"measurement": "protein stability index", "setting": "pdr5∆", "value": "2.79 ± 0.074"}, {"measurement": "protein stability index", "setting": "san1∆", "value": "3.13 ± 0.089"}, {"measurement": "protein stability index", "setting": "ubr1∆", "value": "2.86 ± 0.046"}]}, {"sequence": "ILEFITAAQVANVELTP [RPC34]", "values": [{"measurement": "protein stability index", "setting": "doa10∆", "value": "2.68 ± 0.12"}, {"measurement": "protein stability index", "setting": "pdr5∆", "value": "2.13 ± 0.08"}, {"measurement": "protein stability index", "setting": "san1∆", "value": "2.27 ± 0.095"}, {"measurement": "protein stability index", "setting": "ubr1∆", "value": "1.53 ± 0.095"}]}]}
